Laboratory results from patent US20260167959A1, “APTAZYME-BASED REGULATABLE GENE EXPRESSION SYSTEMS” (REJUVENATE BIO INC, priority 2022, published 2026).
Changes are numbered by the printed parent chain.

B1: RA359 (nucleic acid)
DNA: GCGCGTCCTGGATAGAATACCAGCATCGTCTTGATGCCCTTGGAAGTCTTCGCGGAAACGCGTACATCCAGCTGACGAGTCCCAAATAGGACGAAACGCGC
modifications: expressed or natural sequence
B2: RA347 (nucleic acid)
DNA: GCGCGTCCTGGATTCGCGGAAACGCAGAATACCAGCATCGTCTTGATGCCCTTGGAAGTCTGTACATCCAGCTGACGAGTCCCAAATAGGACGAAACGCGC
modifications: expressed or natural sequence
B3: RA362 (nucleic acid)
DNA: GCGCGTCCTGGAGGAATACCAGCATCGTCTTGATGCCCTTGGAAGTCCTTCGCGGAAACGCGTACATCCAGCTGACGAGTCCCAAATAGGACGAAACGCGC
modifications: expressed or natural sequence
B4: RA355 (nucleic acid)
DNA: GCGCGTCCTGGATTCGCGGAAACGCGTACATCGAGAATACCAGCATCGTCTTGATGCCCTTGGAAGTCTCCAGCTGACGAGTCCCAAATAGGACGAAACGCGC
modifications: expressed or natural sequence
B5: RA350 (nucleic acid)
DNA: GCGCAGAATACCAGCATCGTCTTGATGCCCTTGGAAGTCTGTCCTGGATTCGCGGAAACGCGTACATCCAGCTGACGAGTCCCAAATAGGACGAAACGCGC
modifications: expressed or natural sequence
B6: RA363 (nucleic acid)
DNA: GCGCGTCCTGGATTCGCGGAAACGCGTACATCCAGCTGACGAGTCCCACGGAATACCAGCATCGTCTTGATGCCCTTGGAAGTCCGAATAGGACGAAACGCGC
modifications: expressed or natural sequence
B7: RA364 (nucleic acid)
DNA: GCGCGTCCTGGATTCGCGGAAACGCGTGGAATACCAGCATCGTCTTGATGCCCTTGGAAGTCCACATCCAGCTGACGAGTCCCAAATAGGACGAAACGCGC
modifications: expressed or natural sequence
B8: RA342 (nucleic acid)
DNA: GCGCGTCCTGGATTCGCGGAAACGCGTACGGAATACCAGCATCGTCTTGATGCCCTTGGAAGTCCGCATCCAGCTGACGAGTCCCAAATAGGACGAAACGCGC
modifications: expressed or natural sequence
B9: RA357 (nucleic acid)
DNA: GCGCGTCCTGGATTCGCGGAAACGCGTACATCCAGCTGACGAGTCCCAAATAGGACGGGAATACCAGCATCGTCTTGATGCCCTTGGAAGTCCAAACGCGC
modifications: expressed or natural sequence
B10: RA352 (nucleic acid)
DNA: GCGCGTCCTGGATTCGCGGAAACGCGTACATCCAGCTGACGAGTCCCAAATAGGACGAAACGCGCGAGAATACCAGCATCGTCTTGATGCCCTTGGAAGTCTCGC
modifications: expressed or natural sequence
B11: RA354 (nucleic acid)
DNA: GCGCGTCCTGGATTCGCGGAAACGCGTACATCCAGCTGACGAGTCCCAAATAGGAGTGATACCAGCATCGTCTTGATGCCCTTGGCAGCACTACGAAACGCGC
modifications: expressed or natural sequence
B12: RA340 (nucleic acid)
DNA: GCGCAGTGATACCAGCATCGTCTTGATGCCCTTGGCAGCACTGTCCTGGATTCGCGGAAACGCGTACATCCAGCTGACGAGTCCCAAATAGGACGAAACGCGC
modifications: expressed or natural sequence
B13: RA348 (nucleic acid)
DNA: GCGCGTCCTGGATTCGCGGAAACGCGTACATCCAGCTGACGACGAGAATACCAGCATCGTCTTGATGCCCTTGGAAGTCTCGGTCCCAAATAGGACGAAACGCGC
modifications: expressed or natural sequence
B14: RA349 (nucleic acid)
DNA: GCGCGTCCTGGATTCGCGGAAACGCGTACATCCAGCTGACGAGGAGAATACCAGCATCGTCTTGATGCCCTTGGAAGTCTCTCCCAAATAGGACGAAACGCGC
modifications: expressed or natural sequence
B15: RA358 (nucleic acid)
DNA: B14 DNA with G44C, A45G, T80C, C81G
modifications: expressed or natural sequence
B16: RA344 (nucleic acid)
DNA: GCGCGTCCTGGATTCGCGGAAACCCGGAATACCAGCATCGTCTTGATGCCCTTGGAAGTCCGGGCGTACATCCAGCTGACGAGTCCCAAATAGGACGAAACGCGC
modifications: expressed or natural sequence
B17: RA343 (nucleic acid)
DNA: GCGCGTCCGGAATACCAGCATCGTCTTGATGCCCTTGGAAGTCCGCTGGATTCGCGGAAACGCGTACATCCAGCTGACGAGTCCCAAATAGGACGAAACGCGC
modifications: expressed or natural sequence
B18: RA361 (nucleic acid)
DNA: GCGCGTCCTGGATTCGCGGAAACGCGTACATCCAGCTGACGAGTCCCAAATAGGACGAAACGCCCGGAATACCAGCATCGTCTTGATGCCCTTGGAAGTCCGGGC
modifications: expressed or natural sequence
B19: RA341 (nucleic acid)
DNA: GCGGAATACCAGCATCGTCTTGATGCCCTTGGAAGTCCGCGTCCTGGATTCGCGGAAACGCGTACATCCAGCTGACGAGTCCCAAATAGGACGAAACGCGC
modifications: expressed or natural sequence
B20: RA360 (nucleic acid)
DNA: B19 DNA with G3A, C38T
modifications: expressed or natural sequence
B21: RA346 (nucleic acid)
DNA: GCGCGTCCTGGATTCGCGGAAACGCGTACATCCAGCTGGAATACCAGCATCGTCTTGATGCCCTTGGAAGTCCGACGAGTCCCAAATAGGACGAAACGCGC
modifications: expressed or natural sequence
B22: RA033 (nucleic acid)
DNA: GCGCGTCCTGGATTCGCGGAAACGCGTACATCCAGCTGACGAGTCCCAAATCCGGAATACCAGCATCGTCTTGATGCCCTTGGAAGTCCGGAGGACGAAACGCGC
modifications: expressed or natural sequence
B23: RA034 (nucleic acid)
DNA: GCGCGTCCTGGATTCGCGGAAACGCGTACATCCAGCTGACGAGAGAATACCAGCATCGTCTTGATGCCCTTGGAAGTCTCGTCCCAAATAGGACGAAACGCGC
modifications: expressed or natural sequence
B24: RA365 (nucleic acid)
DNA: GCGAGAATACCAGCATCGTCTTGATGCCCTTGGAAGTCTCGTCCTGGATTCGCGGAAACGCGTACATCCAGCTGACGAGTCCCAAATAGGACGAAACGCGC
modifications: expressed or natural sequence
B25: RA356 (nucleic acid)
DNA: GCGCGTCCTGGATTCGCGGAAACGCGTACATCCAGCTGACGAGTCCCAAATAGGACGAAAGAGAATACCAGCATCGTCTTGATGCCCTTGGAAGTCTCCGCGC
modifications: expressed or natural sequence
B26: RA035 (nucleic acid)
DNA: B25 DNA with G61C, A62G, T97C, C98G
modifications: expressed or natural sequence
B27: RA345 (nucleic acid)
DNA: GCGCGTCCTGGATTCGCGGAAACGCGTACATCCAGCTGACGAGTCCCAAATAGGACGAAACGCGAGAATACCAGCATCGTCTTGATGCCCTTGGAAGTCTC
modifications: expressed or natural sequence
B28: RA353 (nucleic acid)
DNA: GCGCGTCCTGGATTCGCGGAAACGCGTACATCCAGCTGACGAGTCCCAAATAGGACGAAACGCCGGAATACCAGCATCGTCTTGATGCCCTTGGAAGTCCGGCGC
modifications: expressed or natural sequence
B29: RA351 (nucleic acid)
DNA: GCGCGTCCTGGATTCGCGGAAACGCGTACATCCAGCGAGAATACCAGCATCGTCTTGATGCCCTTGGAAGTCTCTGACGAGTCCCAAATAGGACGAAACGCGC
modifications: expressed or natural sequence

Tested on: Renilla luciferase RNA
Test: Barcoded aptazyme variant library screen: un-cleaved Renilla luciferase RNA by barcode read counts, HEK293-T cells
Type: cell-based
Conditions: triplicate
Summary of the method: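 Barcode sequencing of cDNA versus DNA, normalized per aptazyme, gave the un-cleaved Renilla luciferase RNA fraction and fold-change with versus without theophylline (triplicates). Library: T3H48 ribozyme with one of seven theophylline aptamer variants inserted at each position, placed in the Renilla 3′ UTR of a dual-luciferase vector.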

[1] = un-cleaved Renilla luciferase RNA by barcode read counts, with 1 mM theophylline (ON) over without theophylline (OFF), HEK293-T cells
[2] = un-cleaved Renilla luciferase RNA, HEK293-T cells cultured with 1 mM theophylline (ON) over without theophylline (OFF), barcode read counts

| Molecule | Fold change in RNA expression between the ON state and the OFF state [1] | Fold change in RNA expression between the ON state and the OFF state [2] |
| --- | --- | --- |
| B1 | 0.8 |  |
| B2 | 0.9 |  |
| B3 | 0.8 |  |
| B4 | 0.9 |  |
| B5 | 0.9 |  |
| B6 | 0.8 |  |
| B7 | 0.8 |  |
| B8 | 0.9 |  |
| B9 | 0.8 |  |
| B10 | 0.9 |  |
| B11 | 0.9 |  |
| B12 | 0.9 |  |
| B13 | 0.9 |  |
| B14 | 0.9 |  |
| B15 | 0.8 |  |
| B16 | 0.9 |  |
| B17 | 0.9 |  |
| B18 | 0.8 |  |
| B19 | 0.9 |  |
| B20 | 0.8 |  |
| B21 | 0.9 |  |
| B22 |  | 2.3 fold |
| B23 |  | 2.3 fold |
| B24 | 0.8 |  |
| B25 | 0.8 |  |
| B26 |  | 2.2 fold |
| B27 | 0.9 |  |
| B28 | 0.9 |  |
| B29 | 0.9 |  |
